From US20240376151A1, “STAPLED PEPTIDES AND METHODS THEREOF” (FOG PHARMACEUTICALS, INC., priority 2022, published 2024)
Numbered stars: 1 amine (or outer) side, 2 acyl side, 3 side chain; on linkers, the order of the positions; unused ones are H or OH. Bridge positions count the residues as written; N and C are the ends. Ends that are not written are not given here. Phenylene(1,4-NHCOCH2)2 = O=C(C[*:1])Nc1ccc(NC(=O)C[*:2])cc1

What was measured:
Format in all cases: binding
CUL5 = molecular target: T1, CUL5 (Homo sapiens, UniProt Q93034, L345D/V341R); experiment: Naive Library Presenter Screening (phage, NGS), CUL5; settings: for interaction data at Target Concentration 10: CUL5 target concentration 10 nM; for interaction data at Target Concentration 30: CUL5 target concentration 30 nM; for interaction data at Target Concentration 100: CUL5 target concentration 100 nM; for interaction data at Target Concentration 300: CUL5 target concentration 300 nM; for interaction data at Target Concentration 1000: CUL5 target concentration 1000 nM
T1 construct: GST-TEV (N, cleaved yes); made in house; host or cells: E. coli BL21 CodonPlus
T1 sequence (Q93034 1-386 V341R/L345D): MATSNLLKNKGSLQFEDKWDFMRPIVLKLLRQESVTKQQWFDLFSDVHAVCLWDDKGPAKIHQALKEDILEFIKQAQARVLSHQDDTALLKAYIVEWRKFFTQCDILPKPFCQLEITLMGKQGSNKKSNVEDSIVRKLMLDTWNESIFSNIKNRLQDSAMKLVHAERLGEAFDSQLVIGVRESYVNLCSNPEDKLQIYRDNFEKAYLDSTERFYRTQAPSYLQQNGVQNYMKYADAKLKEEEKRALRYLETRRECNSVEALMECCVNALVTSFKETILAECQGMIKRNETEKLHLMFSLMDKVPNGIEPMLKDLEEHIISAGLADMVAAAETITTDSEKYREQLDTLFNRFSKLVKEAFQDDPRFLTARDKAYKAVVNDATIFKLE

FBXW7-SKP1 = molecular target: T2, FBXW7-SKP1 (Homo sapiens, UniProt Q969H0); experiment: Naive Library Presenter Screening (phage, NGS), FBXW7-SKP1; settings: for interaction data at Target Concentration 10: FBXW7 target concentration 10 nM; for interaction data at Target Concentration 30: FBXW7 target concentration 30 nM; for interaction data at Target Concentration 100: FBXW7 target concentration 100 nM; for interaction data at Target Concentration 300: FBXW7 target concentration 300 nM; for interaction data at Target Concentration 1000: FBXW7 target concentration 1000 nM
T2 construct: FBXW7 (Uniprot ID: Q969H0, residues 263-706) with an N-terminal GST-TEV tag and C-terminal AVI tag; GST-TEV (N); made in house; host or cells: E. coli BL21 (DE3)
Protocol: To conduct phage library screening, previously described procedures were utilized in accordance with the present disclosure.
Next-generation sequencing was performed as described in accordance with the present disclosure.
Hit ID and Clustering is performed according to a described procedure in accordance with the present disclosure.

WWP1 = molecular target: T3, WWP1 (Homo sapiens, UniProt Q9H0M0); experiment: Naive Library Presenter Screening (phage, NGS), WWP1 (construct not given); settings: for interaction data at Target Concentration 10: WWP1 target concentration 10 nM; for interaction data at Target Concentration 30: WWP1 target concentration 30 nM; for interaction data at Target Concentration 100: WWP1 target concentration 100 nM; for interaction data at Target Concentration 300: WWP1 target concentration 300 nM; for interaction data at Target Concentration 1000: WWP1 target concentration 1000 nM
T3 construct: GST-TEV (N, cleaved yes); made in house; host or cells: Escherichia coli BL21 (DE3)

T2 sequence (Q969H0 263-706): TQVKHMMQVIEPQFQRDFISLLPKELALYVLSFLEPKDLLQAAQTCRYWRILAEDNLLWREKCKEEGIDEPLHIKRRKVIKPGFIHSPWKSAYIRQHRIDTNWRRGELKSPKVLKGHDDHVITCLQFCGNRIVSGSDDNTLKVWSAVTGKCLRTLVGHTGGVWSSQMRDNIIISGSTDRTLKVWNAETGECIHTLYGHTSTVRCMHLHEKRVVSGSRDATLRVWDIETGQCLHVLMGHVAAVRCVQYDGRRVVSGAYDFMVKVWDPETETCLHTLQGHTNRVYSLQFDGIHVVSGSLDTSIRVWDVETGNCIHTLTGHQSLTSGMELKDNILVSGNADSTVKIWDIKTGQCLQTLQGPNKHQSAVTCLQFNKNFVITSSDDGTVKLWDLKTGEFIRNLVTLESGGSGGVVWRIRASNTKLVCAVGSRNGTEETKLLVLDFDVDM
T2 sequence (P63208 whole entry partner, the tested form may be a part): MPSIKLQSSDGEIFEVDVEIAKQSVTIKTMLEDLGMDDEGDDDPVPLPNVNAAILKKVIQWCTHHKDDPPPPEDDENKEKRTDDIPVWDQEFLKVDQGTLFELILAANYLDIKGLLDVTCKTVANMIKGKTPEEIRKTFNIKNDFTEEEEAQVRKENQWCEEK

Row | Sequence | interaction data at Target Concentration 10 (FBXW7-SKP1) | interaction data at Target Concentration 30 (FBXW7-SKP1) | interaction data at Target Concentration 100 (FBXW7-SKP1) | interaction data at Target Concentration 300 (FBXW7-SKP1) | interaction data at Target Concentration 1000 (FBXW7-SKP1; first column) | interaction data at Target Concentration 1000 (FBXW7-SKP1; second column) | also measured
1 | DPAYYVCAEAAWNCLFE | – | – | – | – | – | – | interaction data at Target Concentration 10 (CUL5): 4; interaction data at Target Concentration 30 (CUL5): 46; interaction data at Target Concentration 100 (CUL5): 104; interaction data at Target Concentration 300 (CUL5): 100; interaction data at Target Concentration 1000 (CUL5; first column): 76; interaction data at Target Concentration 1000 (CUL5; second column): 0
2 | DPATFACANAAWECYAR | – | – | – | – | – | – | interaction data at Target Concentration 10 (CUL5): 0; interaction data at Target Concentration 30 (CUL5): 6; interaction data at Target Concentration 100 (CUL5): 25; interaction data at Target Concentration 300 (CUL5): 11; interaction data at Target Concentration 1000 (CUL5; first column): 35; interaction data at Target Concentration 1000 (CUL5; second column): 0
3 | DPAWQWCAEAAWQCITH (not fully specified (C-terminus, bridges); cysteine pairing not given here) | – | – | – | – | – | – | interaction data at Target Concentration 10 (CUL5): 14; interaction data at Target Concentration 30 (CUL5): 59; interaction data at Target Concentration 100 (CUL5): 284; interaction data at Target Concentration 300 (CUL5): 284; interaction data at Target Concentration 1000 (CUL5; first column): 265; interaction data at Target Concentration 1000 (CUL5; second column): 0
4 | DPADMMCENAALLCEFW | 1 | 3 | 68 | 20 | 282 | 228 | –
5 | DPAWMTCATAAWECYLA | – | – | – | – | – | – | interaction data at Target Concentration 10 (CUL5): 6; interaction data at Target Concentration 30 (CUL5): 6; interaction data at Target Concentration 100 (CUL5): 62; interaction data at Target Concentration 300 (CUL5): 48; interaction data at Target Concentration 1000 (CUL5; first column): 55; interaction data at Target Concentration 1000 (CUL5; second column): 0
6 | DPATYFCYDAAELCDWW | 0 | 0 | 1 | 5 | 5 | 82 | –
7 | DPANIACDDAALLCELW | 0 | 1 | 1 | 7 | 8 | 6 | –
8 | DPAAFFCDDAAERCEFW | 4 | 39 | 35 | 163 | 245 | 449 | –
9 | DPAMIACSHAAQMCHWS (linker 7-14 via Phenylene(1,4-NHCOCH2)2) | – | – | – | – | – | – | interaction data at Target Concentration 10 (WWP1): 0; interaction data at Target Concentration 30 (WWP1): 8; interaction data at Target Concentration 100 (WWP1): 3; interaction data at Target Concentration 300 (WWP1): 454; interaction data at Target Concentration 1000 (WWP1; first column): 275; interaction data at Target Concentration 1000 (WWP1; second column): 281
10 | DPAQQTCSQAAWVCSIL (linker 7-14 via Phenylene(1,4-NHCOCH2)2; not fully specified (C-terminus)) | – | – | – | – | – | – | interaction data at Target Concentration 10 (WWP1): 0; interaction data at Target Concentration 30 (WWP1): 55; interaction data at Target Concentration 100 (WWP1): 443; interaction data at Target Concentration 300 (WWP1): 363; interaction data at Target Concentration 1000 (WWP1; first column): 397; interaction data at Target Concentration 1000 (WWP1; second column): 477
11 | DPANWVCMDAAELCDFY (DPANWVCMDAAELCDFY-NH2; linker 7-14 via Phenylene(1,4-NHCOCH2)2 (inferred)) | 0 | 0 | 5 | 2 | 99 | 15 | –
12 | DPATETCAQAAVLCHSD (linker 7-14 via Phenylene(1,4-NHCOCH2)2 (inferred); not fully specified (C-terminus)) | – | – | – | – | – | – | interaction data at Target Concentration 10 (WWP1): 1; interaction data at Target Concentration 30 (WWP1): 12; interaction data at Target Concentration 100 (WWP1): 3; interaction data at Target Concentration 300 (WWP1): 200; interaction data at Target Concentration 1000 (WWP1; first column): 519; interaction data at Target Concentration 1000 (WWP1; second column): 449
13 | DPALQTCMDAAQVCRLL (linker 7-14 via Phenylene(1,4-NHCOCH2)2) | – | – | – | – | – | – | interaction data at Target Concentration 10 (WWP1): 0; interaction data at Target Concentration 30 (WWP1): 0; interaction data at Target Concentration 100 (WWP1): 107; interaction data at Target Concentration 300 (WWP1): 163; interaction data at Target Concentration 1000 (WWP1; second column): 197
14 | DPAFIQCTHAANMCHSS (linker 7-14 via Phenylene(1,4-NHCOCH2)2) | – | – | – | – | – | – | interaction data at Target Concentration 10 (WWP1): 0; interaction data at Target Concentration 30 (WWP1): 3; interaction data at Target Concentration 100 (WWP1): 43; interaction data at Target Concentration 1000 (WWP1; first column): 336; interaction data at Target Concentration 1000 (WWP1; second column): 562

Now from value to sequence, other results behind:

Row | interaction data at Target Concentration 10 (FBXW7-SKP1) | interaction data at Target Concentration 30 (FBXW7-SKP1) | interaction data at Target Concentration 100 (FBXW7-SKP1) | interaction data at Target Concentration 300 (FBXW7-SKP1) | interaction data at Target Concentration 1000 (FBXW7-SKP1; first column) | interaction data at Target Concentration 1000 (FBXW7-SKP1; second column) | Sequence | also measured
15 | 2 | 80 | 352 | 535 | 1005 | 510 | DPADLTCEDAAELCEFW | –
16 | 0 | 0 | 1 | 4 | 66 | 94 | DPAIRMCRDAAELCEFW | –
17 | 0 | 0 | 20 | 28 | 91 | 17 | DPAFWYCDEAAEMCEFW | –
18 | 0 | 0 | 5 | 4 | 15 | 36 | DPAAWICEEAAEICEFW | –
19 | 4 | 131 | 203 | 946 | 1140 | 1464 | DPANIACDDAALLCEFW | –
20 | 0 | 0 | 2 | 7 | 5 | 8 | DPANIACDDAALLCAFW | –
21 | 1 | 23 | 187 | 302 | 505 | 554 | DPADMYCRDAAELCEFW | –
22 | 0 | 0 | 0 | 3 | 17 | 83 | DPAMTWCLNAAELCEFW | –
23 | 1 | 26 | 61 | 34 | 215 | 132 | DPAITTCLDAAELCDFW | –
24 | 0 | 0 | 1 | 3 | 13 | 38 | DPAYFSCEDAAELCEWY | –
